Experimental data taken from paper PMC6868009 (Nature Communications, 2019).

B1: TccC3 (TcC) of the TcdB2-TccC3 cocoon, without the HVR (domain or fragment)
chain: MKNIDPKLYQKTPTVSVYDNRGLIIRNIDFHRTTANGDPDTRITRHQYDIHGHLNQSIDPRLYEAKQTNNTIKPNFLWQYDLTGNPLCTESIDAGRTVTLNDIEGRPLLTVTATGVIQTRQYETSSLPGRLLSVAEQTPEEKTSRITERLIWAGNTEAEKDHNLAGQCVRHYDTAGVTRLESLSLTGTVLSQSSQLLIDTQEANWTGDNETVWQNMLADDIYTTLSTFDATGALLTQTDAKGNIQRLAYDVAGQLNGSWLTLKGQTEQVIIKSLTYSAAGQKLREEHGNDVITEYSYEPETQRLIGIKTRRPSDTKVLQDLRYEYDPVGNVISIRNDAEATRFWHNQKVMPENTYTYDSLYQLISATGREMANIGQQSHQFPSPALPSDNNTYTNYTRTYTYDRGGNLTKIQHSSPATQNNYTTNITVSNRSNRAVLSTLTEDPAQVDALFDAGGHQNTLISGQNLNWNTRGELQQVTLVKRDKGANDDREWYRYSGDGRRMLKINEQQASNNAQTQRVTYLPNLELRLTQNSTATTEDLQVITVGEAGRAQVRVLHWESGKPEDIDNNQLRYSYDNLIGSSQLELDSEGQIISEEEYYPYGGTALWAARNQTEASYKTIRYSGKERDATGLYYYGYRYYQPWIGRWLSSDPAGTIDGLNLYRMVRNNPVTLLDPDGL
B2: TcdB2 (TcB) of the TcdB2-TccC3 cocoon (natural protein)
chain: MQNSQDFSITELSLPKGGGAITGMGEALTPTGPDGMAALSLPLPISAGRGYAPAFTLNYNSGAGNSPFGLGWDCNVMTIRRRTHFGVPHYDETDTFLGPEGEVLVVADQPRDESTLQGINLGATFTVTGYRSRLESHFSRLEYWQPKTTGKTDFWLIYSPDGQVHLLGKSPQARISNPSQTTQTAQWLLEASVSSRGEQIYYQYRAEDDTGCEADEITHHLQATAQRYLHIVYYGNRTASETLPGLDGSAPSQADWLFYLVFDYGERSNNLKTPPAFSTTGSWLCRQDRFSRYEYGFEIRTRRLCRQVLMYHHLQALDSKITEHNGPTLVSRLILNYDESAIASTLVFVRRVGHEQDGNVVTLPPLELAYQDFSPRHHAHWQPMDVLANFNAIQRWQLVDLKGEGLPGLLYQDKGAWWYRSAQRLGEIGSDAVTWEKMQPLSVIPSLQSNASLVDINGDGQLDWVITGPGLRGYHSQRPDGSWTRFTPLNALPVEYTHPRAQLADLMGAGLSDLVLIGPKSVRLYANTRDGFAKGKDVVQSGDITLPVPGADPRKLVAFSDVLGSGQAHLVEVSATKVTCWPNLGRGRFGQPITLPGFSQPATEFNPAQVYLADLDGSGPTDLIYVHTNRLDIFLNKSGNGFAEPVTLRFPEGLRFDHTCQLQMADVQGLGVASLILSVPHMSPHHWRCDLTNMKPWLLNEMNNNMGVHHTLRYRSSSQFWLDEKAAALTTGQTPVCYLPFPIHTLWQTETEDEISGNKLVTTLRYARGAWDGREREFRGFGYVEQTDSHQLAQGNAPERTPPALTKNWYATGLPVIDNALSTEYWRDDQAFAGFSPRFTTWQDNKDVPLTPEDDNSRYWFNRALKGQLLRSELYGLDDSTNKHVPYTVTEFRSQVRRLQHTDSRYPVLWSSVVESRNYHYERIASDPQCSQNITLSSDRFGQPLKQLSVQYPRRQQPAINLYPDTLPDKLLANSYDDQQRQLRLTYQQSSWHHLTNNTVRVLGLPDSTRSDIFTYGAENVPAGGLNLELLSDKNSLIADDKPREYLGQQKTAYTDGQNTTPLQTPTRQALIAFTETTVFNQSTLSAFNGSIPSDKLSTTLEQAGYQQTNYLFPRTGEDKVWVAHHGYTDYGTAAQFWRPQKQSNTQLTGKITLIWDANYCVVVQTRDAAGLTTSAKYDWRFLTPVQLTDINDNQHLITLDALGRPITLRFWGTENGKMTGYSSPEKASFSPPSDVNAAIELKKPLPVAQCQVYAPESWMPVLSQKTFNRLAEQDWQKLYNARIITEDGRICTLAYRRWVQSQKAIPQLISLLNNGPRLPPHSLTLTTDRYDHDPEQQIRQQVVFSDGFGRLLQAAARHEAGMARQRNEDGSLIINVQHTENRWAVTGRTEYDNKGQPIRTYQPYFLNDWRYVSNDSARQEKEAYADTHVYDPIGREIKVITAKGWFRRTLFTPWFTVNEDENDTAAEVKKVKM

Experiments:
[1] = molecular target: B2; test: crystal structure; settings: both partners purified
[2] = molecular target: Photorhabdus luminescens TcdA1 (TcA) (Photorhabdus luminescens, UniProt Q9RN43 1-2516); test: cryo-EM structure; settings: both partners purified

B1
binding result [1]: binds

B2
binding result [2]: binds
